Assay in all cases: cryo-EM structure
Series [1] deals with the molecule itself.
Series [2] deals with the molecule itself. The source holds these as a separate data set.
Series [3] deals with the molecule itself. This is another data set of the same source.

Like-named read-outs stand apart in the source and are kept apart here.

By stoichiometry N is commonly meant the number of molecules, sites or subunits per partner or assembly.

B1: Csy3 (natural protein)
chain: MSKPILSTASVLAFERKLDPSDALMSAGAWAQRDASQEWPAVTVREKSVRGTISNRLKTKDRDPAKLDASIQSPNLQTVDVANLPSDADTLKVRFTLRVLGGAGTPSACNDAAYRDKLLQTVATYVNDQGFAELARRYAHNLANARFLWRNRVGAEAVEVRINHIRQGEVARAWRFDALAIGLRDFKADAELDALAELIASGLSGSGHVLLEVVAFARIGDGQEVFPSQELILDKGDKKGQKSKTLYSVRDAAAIHSQKIGNALRTIDTWYPDEDGLGPIAVEPYGSVTSQGKAYRQPKQKLDFYTLLDNWVLRDEAPAVEQQHYVIANLIRGGVFGEAEEK
Take B1: the “stoichiometry N” value in series [1] stood at 4; in series [2] it was 5; in series [3] it was 6.
